Measured values: patent publication US20060159683A1 (UNIVERSITY OF ZURICH, published 2006)
Numbering of substitutions follows the chain as printed.

Tests used:
[1] = target: T1, epithelial glycoprotein-2 (EGP-2) on SW2 human small cell lung carcinoma cells (human, UniProt P16422 24-314); test: RIA, 99mTc-labelled scFv on SW2 cells, 4 C
T1 construct: whole, on cells; also called GA733-2; Ep-CAM
T1 sequence (looked up): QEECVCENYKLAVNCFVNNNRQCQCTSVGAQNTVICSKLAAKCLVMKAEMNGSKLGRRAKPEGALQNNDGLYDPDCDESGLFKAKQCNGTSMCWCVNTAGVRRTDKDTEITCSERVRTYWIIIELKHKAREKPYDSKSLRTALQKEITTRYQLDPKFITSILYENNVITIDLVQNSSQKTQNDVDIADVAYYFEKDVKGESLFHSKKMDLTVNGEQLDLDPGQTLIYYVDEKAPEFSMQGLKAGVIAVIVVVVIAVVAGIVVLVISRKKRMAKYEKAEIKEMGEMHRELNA
Description: The binding affinity of the ^99mTc labelled single-chain Fv fragments was determined on SW2 cells in a radioimmunoaffinity assay (RIA). SW2 (0.5×10⁶) cells were incubated with increasing amounts of single-chain Fv fragment (100 pM-30 nM) for 1 hour at 4° C. For estimation of nonspecific binding control samples of cells were pre-incubated with a 100-fold excess of unlabelled single-chain. Fv fragment for 1 h at 4° C. The bound fraction of single-chain Fv fragment was determined in a scintillation counter. Each obtained value represents the mean of two samples. Counts per minutes (cpm) were plotted against the nanomolar concentration of single-chain Fv fragment and fitted with the non-linear regression function.
High-affinity binding with long residual time on the specific target antigen is regarded as one of the most important characteristics of antibodies for tumor targeting. To ensure that binding affinity was conserved in the grafting experiment dissociation constants of the radiolabelled single-chain Fv fragment were determined on cells in a radioimmunoactrvity assay (RIA).

[2] = target: T2, recombinant soluble human epithelial glycoprotein-2 (M1-F259) with a six-histidine C-terminal tag (human, UniProt P16422 24-259); test: SPR (BIAcore), EGP-2 immobilized, low density coating and high flow rate
T2 construct: range 1-259; In SPR it was amine-coupled to a CM-5 chip at 350 RU; also called recombinant soluble EGP-2-antigen; immobilized EGP-2
T2 sequence: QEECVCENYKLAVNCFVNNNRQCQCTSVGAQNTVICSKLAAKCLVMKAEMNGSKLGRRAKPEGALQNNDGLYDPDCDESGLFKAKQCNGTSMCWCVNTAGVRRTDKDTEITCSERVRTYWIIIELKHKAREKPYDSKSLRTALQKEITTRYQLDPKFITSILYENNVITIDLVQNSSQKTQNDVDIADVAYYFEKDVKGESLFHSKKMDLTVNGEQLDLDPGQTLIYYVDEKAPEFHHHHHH
Description: (§1) Kinetic rate constants were determined by surface plasmon resonance (SPR) with a BIAcore instrument. Recombinant soluble EGP-2-antigen was covalently coupled to a CM-5 sensor chip via free amine groups resulting, in a surface coverage of 350 resonance units. Single-chain Fv fragments were injected in increasing concentrations (0.1 nM 4.4 μM) at a flow rate of 30 μl/min of degassed PBS/0.005% Tween-20. Association and dissociation rate constants were calculated from the sensorgram the by a global curve fit using the BIAevaluation 3.0 software (Pharmacia).
(§2) To minimize rebinding effects which could lead to an underestimation of the off-rates, we used low density coating and high flow rate.

[3] = target: T2, recombinant soluble human epithelial …; test: SPR (BIAcore), EGP-2 immobilized, 20 C
Description: as §1, §2

[4] = target: T3, c-erbB2 (UniProt P04626 23-652, limits assumed); test: solid-phase RIA, 99mTc-labelled scFv on coated antigen
T3 construct: also called p185Her2
Description: (§3) In three washing steps cells were centrifuged at 1000 g for 5 min at 4° C., the supernatants discarded and the cells re-suspended in PBS/1% BSA. The remaining radioactivity was then measured in a scintillation counter. In a further binding experiment both-scFv fragments (50 ng) were incubated with different antigens, coated (500 ng/well) on a 96 well microtiter plate, to check for cross-reactivity. The wells were washed three times with PBS/1% BSA and the radioactivity was determined.

[5] = target: T4, EGF-receptor (extracellular domain) (UniProt P00533 25-645); test: as above
T4 construct: extracellular domain
Description: as §3

[6] = target: T1, epithelial glycoprotein-2 (EGP-2) on …; test: competition RIA on SW2 cells against 99mTc-labelled 4D5MOC-A and 4D5MOC-B
Description: as §3

B1: anti-EGP-2 scFv fragment obtained from the murine hybridoma MOC31 (scFv)
scFv: DIVMTQSAFSNPVTLGTSASISCRSTKSLLHSNGITYLYWYLQKPGQSPQLLIYQMSNLASGVPDRFSSSGSGTDFTLRISRVEAEDVGVYYCAQNLEIPRTFGGGTKLEIKRTPSHNSHQVPSAGGPTANSGTSGSQVQLQQSGPELKKPGETVKISCKASGYTFTNYGMNWVKQAPGRGLKWMGWINTYTGESTYADDFKGRFAFSLETSASAAYLQINNLKNEDTATYFCARFAIKGDYWGQGTTLTVSS
modifications: 99mTc-tricarbonyl bound to the C-terminal His tag in the RIA and Lindmo assays; unlabelled in SPR
notes: Murine scFv expressed from vector pAK400 in E. coli periplasm and purified by IMAC through its His tag; also called scFv MOC31; MOC31 scFv
- Kd [1]: 10.8 nM
- half-life of binding [2]: ~38 min
- Kd [3]: 3 nM
- koff [3]: 0.0003 s⁻¹
- kon [3]: 99000 M⁻¹ s⁻¹

B2: anti-EGP-2 scFv fragment 4D5MOC-A (scFv)
scFv: DIQMTQSPSSLSASVGDRVTITCRSTKSLLHSNGITYLYWYQQKPGKAPKLLIYQMSNLASGVPSRFSSSGSGTDFTLTISSLQPEDFATYYCAQNLEIPRTFGQGTKVELKRTPSHNSHQVPSAGGPTANSGTSGSEVQLVESGGGLVQPGGSLRLSCAASGYTFTNYGMNWVRQAPGKGLEWMGWINTYTGESTYADSVKGRFTFSLDTSASAAYLQMNSLRAEDTAVYYCARFAIKGDYWGQGTLVTVSS
modifications: 99mTc-tricarbonyl complexed to the C-terminal His tag in the RIA and Lindmo assays; unlabelled in SPR. The tag itself is not in the letters.
notes: the others are not; Expected mass 29,855 Da; also called scFv 4D5MOC-A; graft variant 4D5MOC-A
- Kd [1]: 3.6 nM
- Kd [3]: 3.5 nM

B3: anti-EGP-2 scFv fragment 4D5MOC-B (scFv)
scFv: B2 scFv with E143Q, G146P, L155V, L157I, R175K, V201F, M220I, V249L
modifications: 99mTc-tricarbonyl bound to the C-terminal His tag in the RIA and Lindmo assays; unlabelled in SPR
notes: Expected mass 29,897 Da; also called scFv 4D5MOC-B
- binding result [4]: no binding (tested: 50 ng scFv on 500 ng/well antigen)
- binding result [5]: no binding (tested: 50 ng scFv on 500 ng/well antigen)
- Kd [1]: 3.7 nM
- Kd [3]: 3.9 nM
- koff [3]: 0.000717 s⁻¹
- kon [3]: 184000 M⁻¹ s⁻¹

B4: murine monoclonal antibody MOC31 (antibody, V domains shown)
VH: QVQLQQSGPELKKPGETVKISCKASGYTFTNYGMNWVKQAPGRGLKWMGWINTYTGESTYADDFKGRFAFSLETSASAAYLQINNLKNEDTATYFCARFAIKGDYWGQGTTLTVSS
VL: DIVMTQSAFSNPVTLGTSASISCRSTKSLLHSNGITYLYWYLQKPGQSPQLLIYQMSNLASGVPDRFSSSGSGTDFTLRISRVEAEDVGVYYCAQNLEIPRTFGGGTKLEIK
notes: Whole murine antibody from hybridoma MOC31; also called mAb MOC31
- binding result [6]: binds
